Measurements reported in publication PMC5969255.

Target: MnSOD-3[Q142H], site-directed mutant of the manganese superoxide dismutase SOD-3 of C. elegans (C. elegans) (UniProt P41977)
Experiment: crystal structure

stoichiometry N: 4
Substance: MnSOD-3[Q142H], site-directed mutant of the manganese superoxide dismutase SOD-3 of C. elegans (from UniProt P41977 25-218) (enzyme)
